Data from publication PMC2115445.
Where “and” joins values, the source holds several entries; their conditions need not be identical. Equal values may be shown once.

Columns and labels:
[1] = target: human erythrocyte ankyrin (human) (UniProt P16157); assay: co-sedimentation
[2] = target: human erythrocyte ankyrin (human) (UniProt P16157); assay: pull-down
[3] = target: Na,K-ATPase (alpha-beta heterodimer) of dog kidney membranes (dog (endogenous in canine kidney)) (UniProt P50997); assay: co-sedimentation

human erythrocyte ankyrin (human), sequence (P16157 whole entry): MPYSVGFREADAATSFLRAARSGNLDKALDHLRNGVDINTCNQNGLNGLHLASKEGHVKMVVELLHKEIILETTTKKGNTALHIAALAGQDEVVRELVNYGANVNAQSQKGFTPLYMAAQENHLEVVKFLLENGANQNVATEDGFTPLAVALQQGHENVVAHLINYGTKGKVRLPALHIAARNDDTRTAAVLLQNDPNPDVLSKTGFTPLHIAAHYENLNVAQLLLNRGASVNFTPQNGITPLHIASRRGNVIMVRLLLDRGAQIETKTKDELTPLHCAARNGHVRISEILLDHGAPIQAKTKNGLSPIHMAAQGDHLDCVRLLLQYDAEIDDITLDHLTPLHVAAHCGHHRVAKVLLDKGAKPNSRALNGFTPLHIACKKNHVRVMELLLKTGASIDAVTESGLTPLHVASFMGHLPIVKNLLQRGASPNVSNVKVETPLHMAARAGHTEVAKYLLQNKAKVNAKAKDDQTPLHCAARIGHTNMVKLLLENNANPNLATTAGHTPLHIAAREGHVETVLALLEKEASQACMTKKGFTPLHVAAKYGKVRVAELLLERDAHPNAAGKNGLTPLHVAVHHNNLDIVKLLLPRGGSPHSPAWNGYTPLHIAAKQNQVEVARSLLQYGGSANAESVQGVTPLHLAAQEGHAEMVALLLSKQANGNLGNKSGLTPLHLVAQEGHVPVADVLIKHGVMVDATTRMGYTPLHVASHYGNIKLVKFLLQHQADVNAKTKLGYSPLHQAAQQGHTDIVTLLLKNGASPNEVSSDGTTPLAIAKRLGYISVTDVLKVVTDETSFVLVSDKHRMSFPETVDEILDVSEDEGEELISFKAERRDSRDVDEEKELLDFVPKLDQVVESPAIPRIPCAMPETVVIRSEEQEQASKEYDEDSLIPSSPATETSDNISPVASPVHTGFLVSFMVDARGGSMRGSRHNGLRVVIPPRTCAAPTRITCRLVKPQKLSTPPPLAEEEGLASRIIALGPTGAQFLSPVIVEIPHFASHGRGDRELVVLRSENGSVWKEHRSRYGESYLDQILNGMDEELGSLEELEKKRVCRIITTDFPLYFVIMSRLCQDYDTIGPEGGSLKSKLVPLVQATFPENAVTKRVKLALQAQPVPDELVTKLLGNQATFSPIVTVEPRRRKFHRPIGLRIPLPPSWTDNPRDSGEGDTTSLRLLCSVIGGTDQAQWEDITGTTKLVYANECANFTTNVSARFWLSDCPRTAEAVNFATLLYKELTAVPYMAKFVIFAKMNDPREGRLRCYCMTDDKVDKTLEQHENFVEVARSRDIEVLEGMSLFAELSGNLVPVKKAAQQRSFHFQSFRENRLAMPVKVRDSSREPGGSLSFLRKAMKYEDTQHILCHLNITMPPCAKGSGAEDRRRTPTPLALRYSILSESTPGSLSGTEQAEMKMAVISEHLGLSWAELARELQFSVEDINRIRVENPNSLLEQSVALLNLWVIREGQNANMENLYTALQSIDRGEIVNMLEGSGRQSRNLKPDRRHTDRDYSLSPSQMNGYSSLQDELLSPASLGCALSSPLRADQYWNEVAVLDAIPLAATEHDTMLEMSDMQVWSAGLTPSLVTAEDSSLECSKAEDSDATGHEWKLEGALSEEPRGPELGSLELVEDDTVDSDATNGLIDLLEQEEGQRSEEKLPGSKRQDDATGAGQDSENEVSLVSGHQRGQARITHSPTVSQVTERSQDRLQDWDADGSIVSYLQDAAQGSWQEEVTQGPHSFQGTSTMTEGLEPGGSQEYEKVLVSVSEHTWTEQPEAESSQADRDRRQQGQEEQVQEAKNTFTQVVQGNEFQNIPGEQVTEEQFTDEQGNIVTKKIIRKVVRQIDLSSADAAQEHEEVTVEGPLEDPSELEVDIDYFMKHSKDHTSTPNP

For “43-kD cytoplasmic domain of human erythrocyte band 3 (domain or fragment)”, the Ki [1] was 3500 nM.

“Na,K-ATPase (alpha-beta heterodimer) of dog kidney membranes (from UniProt P50997 1-1021; P06583 1-303) (complex)” gave a fold bound to immobilized ankyrin against immobilized BSA [2] of 17 fold.

In the case of “human erythrocyte ankyrin (from UniProt P16157 1-1881) (natural protein)”, the Kd [3] is reported as 2590 nM and 2570 nM, the stoichiometry N (molecules of Na,K-ATPase per ankyrin) [3] is reported as 3.5 to 4.8 and the stoichiometry N ([3]; scale: molecules of Na,K-ATPase alpha-beta heterodimer per ankyrin) is reported as 2.93 and 5.05.
